Reference: the supplement of paper PMC10567573

B1: FBXO39 (parent)
chain: PSRVHASEVESAVWYVKKFGRYLE
B2: MATN2 (parent)
chain: TDDSYSCHCLKGFTLNPDKKTCRR

Variants of: B1
Experiment: protein stability index of a GFP-peptide fusion (GPS, HEK-293T) (PSI 1-6); higher = more stable
Details: c terminus: a fixed tail appended
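Also: lentivirally expressed fusions sorted by FACS into six bins by GFP to DsRed ratio, PSI derived from sequencing read proportions per bin multiplied by bin number.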

Protein stability index: each site, then its substitutions
Y22: E 2.58; G 2.85; T 2.03; S 2.58; I 1.85; N 2.71; F 1.91; H 2.69; K 3.58; R 2.98; V 2.28; C 2.44; L 1.62; M 2.1; D 2.89; P 2.67; W 3.81; A 2.39; Q 2.74
L23: A 2.59; V 2.49; E 2.26; W 2.08; D 2.9; N 2.5; Y 2.53; G 1.48; I 2.17; R 2.5; S 2.76; C 2.26; H 2.45; K 3.07; M 2.09; P 2.58; Q 2.74; T 2.32; F 2.05
R21: K 1.87; F 1.9; P 1.98; N 2.3; E 2.5; T 2.08; D 3; L 1.53; C 1.47; Q 2.09; M 1.37; H 2.04; V 2.42; W 2.08; G 2.42; S 2.22; I 2.19; Y 1.65
E24: S 1.83; M 2.07; D 1.9; A 1.59; F 1.94; W 2.33; K 2.13; I 2.01; G 1.94; H 1.94; R 2.22; Y 2.2; L 1.54; Q 1.99; N 2.06; V 1.74; P 2.26; T 2.55; C 2.42

Variants of: B2
Experiment: as above
Details: c terminus: a fixed tail appended

Protein stability index: each site, then its substitutions
D2: K 2.85; I 2.02; H 2.15; R 2.29; C 1.88; F 1.41; L 2.81; N 2.32; M 2.09; Q 1.82; Y 1.26; S 2.11; G 2.98; P 1.66
T1: W 2.35; L 2.36; C 2; M 2.47; D 2.55; N 1.86
L10: K 2.63; I 2.15; S 2.55; W 2.98; M 1.9; D 3.55; P 3.56; Q 1.77; A 2.48; V 1.72; E 2.22; R 1.65; G 2.91
N16: C 2.97; K 2.33; F 1.8; S 2.24; Q 1.56; H 2.3; L 2.24; P 2.85; T 1.91; D 2.17; Y 2.4; V 2.56; E 2.06; I 2.89; W 1.6; G 2.23
T14: I 2.02; Q 1.67; S 2.13; G 2.24; H 2.36; K 2.16; E 2.23; N 2.68; F 1.32; D 2.14; A 2.69
T21: D 2.6; W 1.83; K 2.06; N 2.32; V 2.41; R 2.34; Q 2.64; A 2.2; Y 2.27; P 2.36; S 2.36
C7: H 3.54; L 4.59; W 3.21; M 4.22; T 4.54; P 3.65; R 3.88; A 4.59; N 4.38; Q 4.27; V 4.28; D 4.78
D18: Q 1.97; R 2.65; F 2.01; L 2.23; A 2.11; I 2.62; W 2.17; M 2.48; T 2.24; K 2.86; N 2.38; G 2.36; S 2.27
C9: E 4.37; L 3.93; W 3.79; R 3.88; V 3.73; H 3.75; T 3.24; G 4.47; M 3.96; Y 3.88; I 3.77
K11: P 2.36; F 2.27; M 1.61; L 2.04; C 2.51; S 2.23; E 2.87; H 2.49
Y5: P 2.14; N 3.36; R 2; F 2.36; V 2.86; E 2.74; G 2.69; M 3.58; A 3.04; H 2.66
K19: Q 2.41; W 1.16; M 2.17; G 1.62; T 2.06; H 3.66; R 2.12; N 2.2; I 2.01; S 2.18; F 1.61; C 4.92
P17: Y 2.26; H 2.42; Q 2.14; I 2.01; N 2.28; D 2.65; F 2.3; L 2.02
L15: T 2.02; K 2.64; C 2.9; E 2.58; P 2.42; D 2.14; Q 2.8; A 2.45; V 2.55; G 1.74
K20: R 2.03; N 2.04; P 1.93; E 2.06; M 1.78; C 4.55; S 2.33; H 2.17; A 2.68; L 1.32
D3: F 1.67; M 2.31; N 2.1; H 2.15; W 1.41; K 1.93; Q 2.13; E 1.73; S 2.24; I 1.91; T 2.01
R23: F 1.86; K 2.76; M 1.5; D 2.62; C 2.83; W 2.26; Y 2.2; T 2.52; L 2.36; S 2.29; G 2.62; P 2.56; H 1.91; I 2.02
C22: Y 1.94; V 3.13; G 2.27; D 2.69; N 2.75; E 2.02; R 2.86; F 2.16
S6: L 2.15; H 2.55; E 2.31; W 2.32; D 2.94; G 2.4; T 2.19; K 3.07; M 1.68; I 1.89
F13: W 2.44; H 1.98; E 2.45; Y 3.04; P 2.74; D 2.27; T 2.3; C 2.39; K 2.55; M 2.71; S 2.21
G12: W 2.01; A 2.45; R 2.08; M 1.9; N 2.24; K 2.41; T 2.39
H8: D 2.05; C 2.05; L 2.4; F 2.14; R 2.51; P 1.63; Y 2.71; I 2.27; M 2.92; T 2.08; G 2.76; W 2.63
R24: V 2.32; C 5.18; S 2.87; I 1.6; L 2.38; G 3.12; N 3.25; D 3.73; W 1.99; K 2.99
S4: N 1.23; E 2.79; Q 2.3; Y 1.77; T 2.04; V 2.22; W 1.81; H 2.66; P 2.64; R 2.03; C 1.8
